From patent US20250043302A1, “MUTATED HYDROXYPHENYLPYRUVATE DIOXYGENASE POLYPEPTIDE, AND CODING GENE AND USE THEREOF” (BEIJING DABEINONG BIOTECHNOLOGY CO., LTD., priority 2021, published 2025)

Experiments:
Assay type in all cases: in vivo
[1] = system: Arabidopsis thaliana T1 plants; test: Isoxaflutole tolerance of transgenic Arabidopsis thaliana T1 plants (spray, bleached leaf area grade, damage score); set-up: Scores (pesticide damage): scale not given here; details: spray, Arabidopsis thaliana T1 plants; for Classification and statistics of the grade of pesticide damage: Grade 0 (number of plants) / Classification and statistics of the grade of pesticide damage: Grade 1 (number of plants) / Classification and statistics of the grade of pesticide damage: Grade 2 (number of plants) / Classification and statistics of the grade of pesticide damage: Grade 3 (number of plants): 16 plants
Outline: (§1)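 Damage was assessed by bleaching grade (0 none; 1 <50%; 2 >50%; 3 100% of leaf area) one week after spraying. Sprays on 18-day-old T1 and wild-type plants used field-rate multiples: topramezone 25–200, isoxaflutole 35–280, mesotrione 52.5–420 g ai/ha.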

[2] = system: Arabidopsis thaliana T1 plants; test: Mesotrione tolerance of transgenic Arabidopsis thaliana T1 plants (spray, bleached leaf area grade, damage score); set-up: Scores: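 damage score 0-100 computed as Σ(N×S)/(T×M)×100 over grades 0-3 with higher meaning more damage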; details: Arabidopsis thaliana T1 plants; for Grade 0 (classification and statistics of the grade of pesticide damage; number of plants) / Grade 1 (classification and statistics of the grade of pesticide damage; number of plants) / Grade 2 (classification and statistics of the grade of pesticide damage; number of plants) / Grade 3 (classification and statistics of the grade of pesticide damage; number of plants): 16 plants
Outline: as §1

[3] = system: Arabidopsis thaliana T1 plants; test: Topramezone tolerance of transgenic Arabidopsis thaliana T1 plants (spray, bleached leaf area grade, damage score); details: 7 DAT, Table 4; for Classification and statistics of the grade of pesticide damage: Grade 0 / Classification and statistics of the grade of pesticide damage: Grade 1 / Classification and statistics of the grade of pesticide damage: Grade 2 / Classification and statistics of the grade of pesticide damage: Grade 3: number of plants; for Scores: pesticide damage score 0-100
Outline: as §1

[4] = isoxaflutole 35 g ai/ha (0.5x field concentration)
[5] = isoxaflutole 70 g ai/ha (1x field concentration)

B1: BnHPPDm-F372A-F383W-02: nucleotide sequence encoding Brassica napus HPPD with F372A+F383W; vector DBN11745 (nucleic acid)
DNA: ATGGGACATGAAAACGCGGCAGTGTGTGAAACTCAACAACATGATGACGCCGCCTCCCCGGGGTTTAAACTTGTCGGGTTCTCAAAATTTGTTAGGAAGAATCCAAAGTCTGACAAGTTCAAGGTGAAACGCTTCCACCACATCGAGTTCTGGTGCGGGGATGCAACAAATGTTTCACGCCGCTTTTCATGGGGACTAGGAATGAGGTTTAGCGCAAAGAGTGATCTCTCCACTGGTAATATGGTTCATGCGAGCTACTTGCTCACATCTGGAGACCTGAGATTCCTCTTCACCGCACCATATTCTCCCTCCCTGTCAGCTGGTGAAGCTCAGCCTTCAGCAACTGCAAGTATCCCTTCGTTTGATCATGCATCGTGCAGGTCTTTCTTCAGTTCACATGGACTCGGCGTCAGAGCAGTAGCGATCGAAGTAGAGGATGCTGAATCAGCTTTCTCCATATCTGTCGCCAACGGCGCGGTGCCTTCTTCTCCACCAAACGTCTTGAATGGTGCTGTTACCATTGCTGAGGTGAAGCTGTACGGAGATGTTGTTTTAAGATATGTTTCATATTACAATGGGACCGTTTCTTTTCTTCCCGGCTTTGAATCTGTTGATGATACTTCTTCCTTCCCTCTTGATTATGGGATCAGGCGGCTGGACCACGCCGTCGGCAACGTGCCGGAGTTAGGTCCTGCTTTGACATATCTTGCCGGCTTCACTGGATTCCATCAATTTGCAGAGTTTACGGCTGACGACGTGGGGACCGCGGAGAGTGGGCTGAACTCAGCAGTCTTGGCCAACAATGATGAAATGGTGCTCCTCCCCATCAATGAACCTGTGCATGGAACAAAGAGAAAGTCGCAGATTCAAACATTTTTAGAGCACAATGAGGGAGCTGGGCTACAGCACCTCGCATTGATGTCAGAAGATATTTTTCGAACGTTGAGGGAGATGCGGAAACGATCTGGTGTAGGCGGCTTTGACTTCATGCCATCCCCTCCGCCAACCTACTACAAGAACCTGAAGAAGAGGGTTGGAGACGTCCTTTCCGAGGAGCAAATTGAAGAATGTGAGGAGCTTGGAATTCTGGTGGACAGAGATGATCAAGGAACACTACTTCAGATCGCCACAAAACCATTGGGCGACAGGCCAACGATATGGATTGAGATCATTCAGCGCGTTGGATGCATGAAGCGTGATGAGGAAGGGAAGGTCTACCAGAGTGGCGGTTGTGGTGGATTTGGAAAAGGAAATTTTTCTGAGCTGTTCAAAAGCATAGAAGAGTATGAGAAAACATTGGAGGCCAAGCAGCTTGTTGGTTGA
modifications: BnHPPDm-F372A-F383W-02 Nucleotide Sequence
notes: vector DBN11745
Resistance evaluation [1, 4]: Moderately
Scores (pesticide damage) [1, 4]: 29
Classification and statistics of the grade of pesticide damage: Grade 0 (number of plants) [1, 4]: 5
Classification and statistics of the grade of pesticide damage: Grade 1 (number of plants) [1, 4]: 8
Classification and statistics of the grade of pesticide damage: Grade 2 (number of plants) [1, 4]: 3
Classification and statistics of the grade of pesticide damage: Grade 3 (number of plants) [1, 4]: 0
Resistance evaluation [1, 5]: Moderately
Scores (pesticide damage) [1, 5]: 33
Classification and statistics of the grade of pesticide damage: Grade 0 (number of plants) [1, 5]: 3
Classification and statistics of the grade of pesticide damage: Grade 1 (number of plants) [1, 5]: 10
Classification and statistics of the grade of pesticide damage: Grade 2 (number of plants) [1, 5]: 3
Classification and statistics of the grade of pesticide damage: Grade 3 (number of plants) [1, 5]: 0
Resistance evaluation ([2]; mesotrione 52.5 g ai/ha): Moderately
Scores ([2]; mesotrione 52.5 g ai/ha): 31
Grade 0 (classification and statistics of the grade of pesticide damage; number of plants) ([2]; mesotrione 52.5 g ai/ha): 5
Grade 1 (classification and statistics of the grade of pesticide damage; number of plants) ([2]; mesotrione 52.5 g ai/ha): 8
Grade 2 (classification and statistics of the grade of pesticide damage; number of plants) ([2]; mesotrione 52.5 g ai/ha): 2
Grade 3 (classification and statistics of the grade of pesticide damage; number of plants) ([2]; mesotrione 52.5 g ai/ha): 1
Resistance evaluation ([2]; mesotrione 105 g ai/ha): Poorly resistant
Scores ([2]; mesotrione 105 g ai/ha): 40
Grade 0 (classification and statistics of the grade of pesticide damage; number of plants) ([2]; mesotrione 105 g ai/ha): 0
Grade 1 (classification and statistics of the grade of pesticide damage; number of plants) ([2]; mesotrione 105 g ai/ha): 13
Grade 2 (classification and statistics of the grade of pesticide damage; number of plants) ([2]; mesotrione 105 g ai/ha): 3
Grade 3 (classification and statistics of the grade of pesticide damage; number of plants) ([2]; mesotrione 105 g ai/ha): 0
Classification and statistics of the grade of pesticide damage: Grade 0 ([3]; topramezone 25 g ai/ha (1×)): 6
Classification and statistics of the grade of pesticide damage: Grade 1 ([3]; topramezone 25 g ai/ha (1×)): 6
Classification and statistics of the grade of pesticide damage: Grade 2 ([3]; topramezone 25 g ai/ha (1×)): 4
Classification and statistics of the grade of pesticide damage: Grade 3 ([3]; topramezone 25 g ai/ha (1×)): 0
Classification and statistics of the grade of pesticide damage: Grade 0 ([3]; topramezone 100 g ai/ha (4×)): 3
Classification and statistics of the grade of pesticide damage: Grade 1 ([3]; topramezone 100 g ai/ha (4×)): 8
Classification and statistics of the grade of pesticide damage: Grade 2 ([3]; topramezone 100 g ai/ha (4×)): 5
Classification and statistics of the grade of pesticide damage: Grade 3 ([3]; topramezone 100 g ai/ha (4×)): 0
Scores ([3]; topramezone 25 g ai/ha (1×)): 29
Scores ([3]; topramezone 100 g ai/ha (4×)): 38
Resistance evaluation ([3]; topramezone 25 g ai/ha (1×)): moderately
Resistance evaluation ([3]; topramezone 100 g ai/ha (4×)): poorly
